Experimental findings from article PMC5612244 are described below.

Experiment [1] deals with recombinant EsGLUT4 extracellular region (between TM1 and TM2) (Eriocheir sinensis). Put plainly: BLI; ForteBio Octet RED96; biotinylated rEsGLUT4 region (50 µg/ml) immobilised on streptavidin (SA) sensors; four serial concentrations of CHHBP, highest 1 µM (intracellular region) and 0.38 µM (extracellular region); association 300 s, dissociation 600 s; room temperature; physiological saline for crab.

The target in experiment [2] is recombinant EsGLUT4 intracellular region (between TM6 and TM7) (Eriocheir sinensis). The experiment is described as above.

In the case of “recombinant CHH binding protein (CHHBP), an E. sinensis flotillin-like protein (natural protein)”, the Kd turned out to be 2.52 nM in experiment [1] and 6.81 nM in experiment [2].
